{"source": "paper PMC10310818", "target": "2b-3×Flag (pGD-2b-3×Flag) (cucumber mosaic virus (CMV)) (UniProt Q66125)", "data": [{"substance": "VISP1-GFP (pGDGm-VISP1-GFP) (natural protein)", "values": [{"measurement": "accumulation of 2b-Flag co-expressed with VISP1-Myc, relative to empty vector (immunoblot, N. benthamiana leaves, 60 hpi)", "value": 0.11, "unit": "fold"}]}]}
